Laboratory results published in paper PMC6195255, “EBP1 nuclear accumulation negatively feeds back on FERONIA-mediated RALF1 signaling”.

Target: T1, EBP1-GST (UniProt Q96327-3 1-401)
T1 sequence: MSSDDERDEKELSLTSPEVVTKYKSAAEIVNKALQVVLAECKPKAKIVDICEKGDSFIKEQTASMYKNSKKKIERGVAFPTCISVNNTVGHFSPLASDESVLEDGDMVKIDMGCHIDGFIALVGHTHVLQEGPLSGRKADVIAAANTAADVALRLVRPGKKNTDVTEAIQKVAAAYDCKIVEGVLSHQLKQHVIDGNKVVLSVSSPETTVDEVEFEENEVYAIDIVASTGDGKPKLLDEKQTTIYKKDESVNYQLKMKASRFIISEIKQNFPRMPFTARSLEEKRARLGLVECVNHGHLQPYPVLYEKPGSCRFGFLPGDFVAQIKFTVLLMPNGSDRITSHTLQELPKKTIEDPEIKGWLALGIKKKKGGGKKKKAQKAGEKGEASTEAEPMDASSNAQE
Assay: EMSA; 100 ng EBP1-GST, 100 pg probe; competition with unlabeled CCACGTC DNA; 10 mM Tris pH 7.5, 50 mM KCl, 1 mM MgCl2, 5% glycerol, 0.5 mM DTT, 0.2 mg/mL BSA, 0.5 mg/mL polyglutamate; room temperature 20 min; 6% native PAGE
Conditions: protein: recombinant; tags: GST; label: FITC; blunt

B1: CML38 promoter CCACGTC probe (dsDNA)
DNA 1: AACACTAATCTACCACGTCTATTACACACA
DNA 2: TGTGTGTAATAGACGTGGTAGATTAGTGTT
binding result: binds
